Results on 16 sequences are retold here after the nanobody polyreactivity screen of Harvey et al. (2022).

This series in a line: yeast display, Sf9 membrane polyspecificity reagent, FACS + sequencing; frameworks hold sequencing errors. An outline of the steps: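 Nanobodies came from a synthetic yeast display library in Saccharomyces cerevisiae BJ5465, induced with galactose for 36–48 hours and stained for 1 hour at 4 °C with 10% biotinylated, detergent-solubilized Sf9 membrane reagent. Cells were enriched on streptavidin microbeads and then FACS-sorted, with low and high (top ~1%) gates set on anti-HA fluorescence for expression and streptavidin fluorescence for reagent binding. Each polyreactivity label reflects the gate a clone came from. Genes were amplified by colony PCR, sequenced by MiSeq 2 × 250 and filtered by CDR length.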
In the case of “QVQLVESGGGLVQAGGSLRLSSAASGINLEYYAMGWSRQAPGKERELVAAIDSTDGSTYYADSVKGRFTISRDNAKNTVYLQLNSLKPEDTAVYYWNVVVSWPLSLLRRDYWGQGTQVTVSS”, the “polyreactivity (PSR sort gate)” value was “low polyreactivity”.
As for “QVQLVESGGGLVQAGGSLRLSCAASGRTFYYYARGWYRQAPGKEREVVASITSGDGTYYADSVQGRFTISRDYAQNTVYLQMNSLKPEATAVYYCAADIFYKFSYYPWYPYRDYYYWGQGTQVTVSS”, the entry is “low polyreactivity”; as for “QVQHVESGGGLVQAGGSLRLSCAASGFTFGYYAMGWYRQAPGKESELVAAIRSSGGSTYYADSVKGRFTISRDYAKNTDYLQMNSLKPEDSAVYYCAVLYGYLSSSRYGYDSWGKGTQVTVSS”, “high polyreactivity”; as for “QVQLVESGGGLVQAGGSLRLTCAASGSIFTFYAMGWYRQAPGKERELVADISFSDVSTYYADSVKGRFTISRDNAKNTVYLQMNSLKPEDTAVYYCAARPYVVSQYFDGVEFYYWGQGTQVTVSS”, “low polyreactivity”.
Next, “QVQLVESGGGLVQAGGSLRLSCAASGFTFGYYVMGWYRQAPGKERELVAAITSGGSTYYADSVKGRFTISRDNAKNTVYLQMNSLKREDTAVYYCNKYGVVLPGFDYWGQGTQVTVSS”: “high polyreactivity”; “QVQLVESGGGLVQAGGSLRLSCAASGITFVANAMGWYRQAPGKERELVAAITRGGSTNYADSVKGRFTISRDNAKNTVYLQMNSLKPEDTAVYYCAADYVTRIGRYDYWGQGSQVTVSS”: “low polyreactivity”.
As for “QVQLVESGGGLVQAGGSLRLSCAASGRTFLINAMGWYRQAPGKERELVAAITQSGGSTYYADSVKGRFTISRDNAKNTVYLQMNSLKPEDTAVYYCAADVPGVYPYDYWGQGTQVTVSS”, the entry is “low polyreactivity”; as for “QVQLVESGGGLVQAGGSLRLSCAASGFTFRGNAMGWYRQAPGKERELVAAISYIGGTTYYADSVKGRFTISRDNAKNTVYLQMNSLKPEDTAVYYCAADLYRSILKPDYDYWGQGTQVTVSS”, “high polyreactivity”; as for “QVQLVESGGGLVQAGGSLRLSCAASGSTFGRNAMGWYRQAPGKERELVAAINWSDGSTHYADSVKGRFTISRDNAKNTVYLQMNSLKPEDTAVYYCGADAWSWPVDYNYWGQGTQVTVSS”, “low polyreactivity”.
Turning to “QVQLVESGGGLVQAGGSLRLSCAASGRIFVYKAMGSYRQAPGKERELVASITSSGGSTYYADSVKGRFTISRDNAKNTVYLQMNSLKPEDTAVYYCAADVQPDTRSTPEMDYWGQGTQVTVSS”, the “polyreactivity (PSR sort gate)” value is reported as “low polyreactivity”.
Next, “QVQLVESGGGLVQAGGSLRLSCAASGIILYYYAMGWYRQAPGKERELVAAISSGGNTYYADSVKGRFTISRDNAKNTVYLQMYSLKPEDTAVYYCAAVTVIGGEYDYWGQGTQVTVSS”: “low polyreactivity”; “QVQLVESGGGLVQAGGSLRLSCAASGFIFYYNAMGWYRQAPGKERELVASISFSGGSTYYADSVKGRFTISRDNAKNTVYLQKNSLKPEDTAVYYCAARYPGGRPWPRYYYWGQGNQVTVSS”: “high polyreactivity”; “QVQLVESGGGLVQAGGILRLSCAASGITFRCYAMVWYRQAPGKERELVAAITTGGSTKYADSVKGRFTISRDNAKKSVYLQMNSLKPEDTAVYYCAARGRYAGGYWGQGTQVTVSS”: “high polyreactivity”.
Next, “QVQLVESVGGLLQAGGSLRLSCDASGSIFADYAMGWYRQAPGKERELVAVITSSGGSTNYADSVKGRFTISRDNAKNTVYLQMNSLKPEDTAVYYCNRRPYPSYDYWGQGTQVTVSS”: “low polyreactivity”; “QVQLVESGGGLVQAGGSLRLSCAASGSTFDYYAMGWYRQAPGKERELVAAISGSGGSTYYADSVKGRITISRDNAKNTVYLQMNSLKPEDTAVYYCATVRSRLFGQYYYWGQGTQVTVSS”: “high polyreactivity”.
As for “QVQLVESGGGLVQAGGSLRLSCAASGSTFLANAMGWYRQAPGKERELVATISSGGSTNYADSVKGRFTISRDNAKNTVYLQMNSLKPEDTAVYYCAAEYWYAWQEYGYWGQGTQVTVSS”, the entry is “low polyreactivity”.
